According to article PMC5045189 (2016):

Biological target: T1, Staphylococcus aureus manganese transporter protein MntC, wild type, recombinant (Staphylococcus aureus, UniProt W8TNQ9 1-309)
T1 chain: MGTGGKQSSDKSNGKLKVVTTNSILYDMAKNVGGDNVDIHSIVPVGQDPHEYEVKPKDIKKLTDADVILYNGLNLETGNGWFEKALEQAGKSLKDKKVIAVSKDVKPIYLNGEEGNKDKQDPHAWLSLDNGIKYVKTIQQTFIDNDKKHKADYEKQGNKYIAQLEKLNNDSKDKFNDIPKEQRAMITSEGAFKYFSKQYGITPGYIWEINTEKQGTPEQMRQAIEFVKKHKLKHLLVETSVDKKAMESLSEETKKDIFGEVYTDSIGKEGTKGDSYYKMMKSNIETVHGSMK
Test: ELISA

B1: monoclonal antibody mAB 305-78-7 (intact antibody, interference group 2) (antibody, V domains shown)
VH: QVQLQQSGAELARPGASVKMSCKASGYTFTRYTMHWVQQRPGQGLEWIGYINPSSDYTKYNQKFKDKATMTADKSSSTAYMQLSSLTSEDSAVYYCARKEDVGYWYFDFWGTGTTVTVSS
VL: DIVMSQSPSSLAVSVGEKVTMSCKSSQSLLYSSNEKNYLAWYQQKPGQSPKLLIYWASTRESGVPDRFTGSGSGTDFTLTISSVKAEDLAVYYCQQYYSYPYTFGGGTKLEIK
- Kd: 1.3 nM
